Assay results reported in PMC10200994 (2023).

B1: STAT5B (unphosphorylated, wild-type), fluorophore fusion [not stated] / STAT5A (unphosphorylated, wild-type), fluorophore fusion [not stated] (parent complex)
chain 1: MAVWIQAQQLQGEALHQMQALYGQHFPIEVRHYLSQWIESQAWDSVDLDNPQENIKATQLLEGLVQELQKKAEHQVGEDGFLLKIKLGHYATQLQNTYDRCPMELVRCIRHILYNEQRLVREANNGSSPAGSLADAMSQKHLQINQTFEELRLVTQDTENELKKLQQTQEYFIIQYQESLRIQAQFGPLAQLSPQERLSRETALQQKQVSLEAWLQREAQTLQQYRVELAEKHQKTLQLLRKQQTIILDDELIQWKRRQQLAGNGGPPEGSLDVLQSWCEKLAEIIWQNRQQIRRAEHLCQQLPIPGPVEEMLAEVNATITDIISALVTSTFIIEKQPPQVLKTQTKFAATVRLLVGGKLNVHMNPPQVKATIISEQQAKSLLKNENTRNDYSGEILNNCCVMEYHQATGTLSAHFRNMSLKRIKRSDRRGAESVTEEKFTILFESQFSVGGNELVFQVKTLSLPVVVIVHGSQDNNATATVLWDNAFAEPGRVPFAVPDKVLWPQLCEALNMKFKAEVQSNRGLTKENLVFLAQKLFNNSSSHLEDYSGLSVSWSQFNRENLPGRNYTFWQWFDGVMEVLKKHLKPHWNDGAILGFVNKQQAHDLLINKPDGTFLLRFSDSEIGGITIAWKFDSQERMFWNLMPFTTRDFSIRSLADRLGDLNYLIYVFPDRPKDEVYSKYYTPVPCESATAKAVDGYVKPQIKQVVPEFVNASADAGGGSATYMDQAPSPAVCPQAHYNMYPQNPDSVLDTDGDFDLEDTMDVARRVEELLGRPMDSQWIPHAQS
chain 2: MAGWIQAQQLQGDALRQMQVLYGQHFPIEVRHYLAQWIESQPWDAIDLDNPQDRAQATQLLEGLVQELQKKAEHQVGEDGFLLKIKLGHYATQLQKTYDRCPLELVRCIRHILYNEQRLVREANNCSSPAGILVDAMSQKHLQINQTFEELRLVTQDTENELKKLQQTQEYFIIQYQESLRIQAQFAQLAQLSPQERLSRETALQQKQVSLEAWLQREAQTLQQYRVELAEKHQKTLQLLRKQQTIILDDELIQWKRRQQLAGNGGPPEGSLDVLQSWCEKLAEIIWQNRQQIRRAEHLCQQLPIPGPVEEMLAEVNATITDIISALVTSTFIIEKQPPQVLKTQTKFAATVRLLVGGKLNVHMNPPQVKATIISEQQAKSLLKNENTRNECSGEILNNCCVMEYHQATGTLSAHFRNMSLKRIKRADRRGAESVTEEKFTVLFESQFSVGSNELVFQVKTLSLPVVVIVHGSQDHNATATVLWDNAFAEPGRVPFAVPDKVLWPQLCEALNMKFKAEVQSNRGLTKENLVFLAQKLFNNSSSHLEDYSGLSVSWSQFNRENLPGWNYTFWQWFDGVMEVLKKHHKPHWNDGAILGFVNKQQAHDLLINKPDGTFLLRFSDSEIGGITIAWKFDSPERNLWNLKPFTTRDFSIRSLADRLGDLSYLIYVFPDRPKDEVFSKYYTPVLAKAVDGYVKPQIKQVVPEFVNASADAGGSSATYMDQAPSPAVCPQAPYNMYPQNPDHVLDQDGEFDLDETMDVARHVEELLRRPMDSLDSRLSPPAGLFTSARGSLS

Variants of: B1
Test: co-localization assay (quantitative fluorescence microscopy in HeLa cells); bait S5A-NES, test S5B-L82A; 27 cells (parent 17 cells); parent: 0.97

Q: With chain 1 L82A as the variant, how does the screen value read?
A: 0.65
